Assay results published in publication PMC3460628.

Tested on: T1, His-ChvI(D52E) D52E (Agrobacterium tumefaciens C58), ORF:0a874367
T1 sequence: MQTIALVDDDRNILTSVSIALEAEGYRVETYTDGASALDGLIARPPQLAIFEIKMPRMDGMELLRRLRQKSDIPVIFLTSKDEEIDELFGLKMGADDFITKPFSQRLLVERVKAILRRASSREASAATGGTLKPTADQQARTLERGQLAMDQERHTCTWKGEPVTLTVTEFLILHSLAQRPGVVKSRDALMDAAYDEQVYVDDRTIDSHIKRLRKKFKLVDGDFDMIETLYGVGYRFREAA
Assay: EMSA

| Sequence | binding |
| --- | --- |
| TCCGCATCCATGGGAATAGCAGTCTTTCCCCACCTTGCCTCCACGCTGGAGCAGCTTTTCGACAGGGCAGACTATGCCCTCTACCACGCCAAGAAAACCCGGCGTGGCGATGCCGTTCTGTTCGATGCGGAACACGAAAAGCAGATCAATATCGAAGCCCGCATTGAGCATCTGCTCAAGCAGAGCGATCTGAAAAACGAACTTTCGGTGATGTTTCAGCCGATCGTGGATATACGCGACGGAAGGATC (double strand) [atu4353 coding region control fragment] | no binding |
| TCGAGGAGTAGTCTATCCCCAGAAAATAGTAATGGATTTTTTGTAGTTACTTCCCTTACGTGAGGCTATTAATCAGACAGACTTATTCAAAATGTGTCTAAATTGTGGCGTCTACTCCCTAATCTAATCTGATAAAAAATAAACTTCGGGGTGGACAACCCGGTTTCATCATCATAGTTATTCCACGTCACGTTGTGGAATGAACCCGGGCAGGAGGCTCATTGCATGTCGGTACCCC (double strand) [imp-hcp intergenic region (T6SS regulatory region), 230 bp] | binds |
